Measured values: PMC2764551

Molecular target: fluorescein-labeled UBE2D2 (WT) (human), P62837
Test: fluorescence polarisation
Settings: remark: other sources report otherwise

Sequence of fluorescein-labeled UBE2D2 (WT) (human), P62837 (P62837 whole entry): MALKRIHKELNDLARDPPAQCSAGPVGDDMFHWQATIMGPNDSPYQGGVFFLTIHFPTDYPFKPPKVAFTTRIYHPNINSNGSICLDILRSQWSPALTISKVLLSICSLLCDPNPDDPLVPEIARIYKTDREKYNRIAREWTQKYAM

B1: IpaH1.4 C-terminal domain, residues 265-575, A0A0H2USG1 265-575 (domain or fragment)
chain: GPQIFFSMGNSATISAPEHSLADAVTAWFPENKQSDVSQIWHAFEHEEHANTFSAFLDRLSDTVSARNTSGFREQVAAWLEKLSASAELRQQSFAVAADATESCEDRVALTWNNLRKTLLVHQASEGLFDNDTGALLSLGREMFRLEILEDIARDKVRTLHFVDEIEVYLAFQTMLAEKLQLSTAVKEMRFYGVSGVTANDLRTAEAMVRSREENEFTDWFSLWGPWHAVLKRTEADRWAQAEEQKYEMLENEYSQRVADRLKASGLSGDADAEREAGAQVMRETEQQIYRQLTDEVLALRLSENGSNHIA
With B1 the Kd was 317 µM.
